Measurements from publication PMC10699790 (Science Advances, 2023).

What was measured:
HA-Halo-mGluR2 = HA-Halo-mGluR2 (rat, UniProt P31421 19-872, Halo tag labeled with CA-SS-Alexa-488); experiment: single-molecule pulldown
HA-Halo-mGluR8 = HA-Halo-mGluR8 (human, UniProt O00222 34-908, Halo tag labeled with CA-SS-Alexa-488); experiment: single-molecule pulldown
Chain of HA-Halo-mGluR8 (O00222 34-908): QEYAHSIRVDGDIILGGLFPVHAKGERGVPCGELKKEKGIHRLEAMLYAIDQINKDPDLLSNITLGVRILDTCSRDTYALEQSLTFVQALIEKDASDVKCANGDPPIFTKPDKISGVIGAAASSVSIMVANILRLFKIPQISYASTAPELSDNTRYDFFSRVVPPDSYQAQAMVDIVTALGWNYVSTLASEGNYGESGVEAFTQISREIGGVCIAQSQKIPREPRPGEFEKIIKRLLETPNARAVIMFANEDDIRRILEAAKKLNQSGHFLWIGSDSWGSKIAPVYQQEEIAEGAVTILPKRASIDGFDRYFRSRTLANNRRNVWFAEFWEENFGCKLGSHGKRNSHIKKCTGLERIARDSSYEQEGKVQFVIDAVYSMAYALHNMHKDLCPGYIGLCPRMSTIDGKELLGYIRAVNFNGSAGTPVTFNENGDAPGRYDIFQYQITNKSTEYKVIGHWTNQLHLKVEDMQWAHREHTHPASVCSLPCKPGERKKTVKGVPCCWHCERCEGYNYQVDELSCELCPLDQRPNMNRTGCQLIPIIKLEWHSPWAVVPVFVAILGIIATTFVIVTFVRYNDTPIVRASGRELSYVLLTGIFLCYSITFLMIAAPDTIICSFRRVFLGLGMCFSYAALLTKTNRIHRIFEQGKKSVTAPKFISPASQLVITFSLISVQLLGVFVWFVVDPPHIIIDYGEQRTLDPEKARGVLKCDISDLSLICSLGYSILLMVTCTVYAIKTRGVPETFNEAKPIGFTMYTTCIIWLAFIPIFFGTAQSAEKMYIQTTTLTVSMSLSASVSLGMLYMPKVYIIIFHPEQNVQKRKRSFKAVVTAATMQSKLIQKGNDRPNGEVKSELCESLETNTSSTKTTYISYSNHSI

Chain of HA-Halo-mGluR2 (P31421 19-872): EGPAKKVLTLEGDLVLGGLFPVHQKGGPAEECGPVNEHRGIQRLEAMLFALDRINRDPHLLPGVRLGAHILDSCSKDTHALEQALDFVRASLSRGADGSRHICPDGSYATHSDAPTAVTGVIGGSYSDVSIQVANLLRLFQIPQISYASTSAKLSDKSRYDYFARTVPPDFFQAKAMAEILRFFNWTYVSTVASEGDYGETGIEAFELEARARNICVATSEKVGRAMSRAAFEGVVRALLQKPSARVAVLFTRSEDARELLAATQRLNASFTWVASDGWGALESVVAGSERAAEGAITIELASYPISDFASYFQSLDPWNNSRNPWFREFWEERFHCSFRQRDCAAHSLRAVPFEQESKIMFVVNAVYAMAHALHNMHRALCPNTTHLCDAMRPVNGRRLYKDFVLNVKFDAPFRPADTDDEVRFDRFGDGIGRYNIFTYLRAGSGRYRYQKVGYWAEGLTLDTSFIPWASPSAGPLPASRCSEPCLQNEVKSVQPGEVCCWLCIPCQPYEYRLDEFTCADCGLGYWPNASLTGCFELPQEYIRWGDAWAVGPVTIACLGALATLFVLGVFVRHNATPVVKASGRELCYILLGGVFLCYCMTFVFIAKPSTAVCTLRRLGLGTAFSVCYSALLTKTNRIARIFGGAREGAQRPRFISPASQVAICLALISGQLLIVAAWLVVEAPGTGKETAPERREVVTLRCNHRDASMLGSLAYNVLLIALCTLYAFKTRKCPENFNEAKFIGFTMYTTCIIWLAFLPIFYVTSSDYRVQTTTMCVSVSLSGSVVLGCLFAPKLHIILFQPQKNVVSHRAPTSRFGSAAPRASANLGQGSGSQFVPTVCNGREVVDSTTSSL

B1: SNAP-mGluR3 without an HA tag (receptor)
chain: LGDHNFMRREIKIEGDLVLGGLFPINEKGTGTEECGRINEDRGIQRLEAMLFAIDEINKDNYLLPGVKLGVHILDTCSRDTYALEQSLEFVRASLTKVDEAEYMCPDGSYAIQENIPLLIAGVIGGSYSSVSIQVANLLRLFQIPQISYASTSAKLSDKSRYDYFARTVPPDFYQAKAMAEILRFFNWTYVSTVASEGDYGETGIEAFEQEARLRNICIATAEKVGRSNIRKSYDSVIRELLQKPNARVVVLFMRSDDSRELIAAANRVNASFTWVASDGWGAQESIVKGSEHVAYGAITLELASHPVRQFDRYFQSLNPYNNHRNPWFRDFWEQKFQCSLQNKRNHRQVCDKHLAIDSSNYEQESKIMFVVNAVYAMAHALHKMQRTLCPNTTKLCDAMKILDGKKLYKEYLLKINFTAPFNPNKGADSIVKFDTFGDGMGRYNVFNLQQTGGKYSYLKVGHWAETLSLDVDSIHWSRNSVPTSQCSDPCAPNEMKNMQPGDVCCWICIPCEPYEYLVDEFTCMDCGPGQWPTADLSGCYNLPEDYIKWEDAWAIGPVTIACLGFLCTCIVITVFIKHNNTPLVKASGRELCYILLFGVSLSYCMTFFFIAKPSPVICALRRLGLGTSFAICYSALLTKTNCIARIFDGVKNGAQRPKFISPSSQVFICLGLILVQIVMVSVWLILETPGTRRYTLPEKRETVILKCNVKDSSMLISLTYDVVLVILCTVYAFKTRKCPENFNEAKFIGFTMYTTCIIWLAFLPIFYVTSSDYRVQTTTMCISVSLSGFVVLGCLFAPKVHIVLFQPQKNVVTHRLHLNRFSVSGTATTYSQSSASTYVPTVCNGREVLDSTTSSL
modifications: SNAP tag labeled with SBG-JF646
stoichiometry N (HA-Halo-mGluR2): 1 | stoichiometry N (HA-Halo-mGluR8): 1
